Where a chain is given by its changes, count along the chain named.
B1: MapZ cytoplasmic domain (domain or fragment, Streptococcus pneumoniae, UniProt Q8DR55 1-158, looked up)
chain: MSKKRRNRHKKEAQEPQFDFDEAKELTVGQAIRKNEEVEAGVLPEDSILDKYVKQHRDEIEADKFATRQYKKEEFVETQSLDDLIQEMREAVEKSEASSEEVPSSEDILLPLPLDDEEQGLDPLLLDDENPTEMTEEVEEEQNLSRLDQEDSEKKSKK
B2: MapZ-2TE cytoplasmic domain (domain or fragment, Streptococcus pneumoniae, UniProt Q8DR55 1-158, looked up)
chain: B1 chain with T67E, T78E

Biological target: T1, FtsZ (full length, recombinant) (Streptococcus pneumoniae, UniProt A0A0H2ZNE0 1-419)
T1 sequence (looked up): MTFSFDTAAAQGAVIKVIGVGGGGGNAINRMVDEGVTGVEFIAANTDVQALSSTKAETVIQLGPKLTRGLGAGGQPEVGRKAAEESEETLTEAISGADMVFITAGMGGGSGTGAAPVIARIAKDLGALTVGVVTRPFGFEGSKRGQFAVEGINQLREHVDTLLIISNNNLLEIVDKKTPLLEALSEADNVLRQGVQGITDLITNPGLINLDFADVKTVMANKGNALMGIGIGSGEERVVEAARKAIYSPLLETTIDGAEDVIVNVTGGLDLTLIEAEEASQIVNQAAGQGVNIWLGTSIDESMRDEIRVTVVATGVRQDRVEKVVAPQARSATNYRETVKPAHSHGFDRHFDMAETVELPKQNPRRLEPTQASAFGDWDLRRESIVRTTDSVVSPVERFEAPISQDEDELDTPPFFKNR
Assay: SPR

Binder | Kd | binding result
B1 | 8.76 nM | 
B2 |  | binds
MSKKRRNRHKKEAQEPQFDFDEAKELTVGQAIRKNEEVEAG (domain or fragment, Streptococcus pneumoniae, UniProt Q8DR55 1-41, looked up) [MapZ N-terminal peptide from Met-1 to Gly-41] | 20.4 nM | 

— publication PMC4268495 (Nature, 2014)
